Laboratory results from article PMC11609053.

Assays:
[1] = biological target: T1, SCAB_Lrp (Streptomyces scabies 87.22?) (UniProt C9ZB67); experiment: EMSA; conditions: 20 uL: 50 ng biotin-labelled probe, 0-400 nM protein, 2 uL binding buffer (Liu et al. 2023; composition, pH and temperature not given), chemiluminescent …
T1 sequence: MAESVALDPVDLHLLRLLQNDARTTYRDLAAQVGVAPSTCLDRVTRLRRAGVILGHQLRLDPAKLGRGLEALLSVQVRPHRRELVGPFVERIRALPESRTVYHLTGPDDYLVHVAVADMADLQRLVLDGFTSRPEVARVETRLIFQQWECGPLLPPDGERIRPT

[2] = biological target: T2, SCAB_Lrp2 (Streptomyces scabies 87.22) (UniProt C9Z7M0); experiment: EMSA; conditions: 20 uL: 50 ng biotin-labelled probe, 0-400 nM protein, 2 uL binding buffer (Liu et al. 2023; composition, pH and temperature not given), chemiluminescent …
T2 sequence: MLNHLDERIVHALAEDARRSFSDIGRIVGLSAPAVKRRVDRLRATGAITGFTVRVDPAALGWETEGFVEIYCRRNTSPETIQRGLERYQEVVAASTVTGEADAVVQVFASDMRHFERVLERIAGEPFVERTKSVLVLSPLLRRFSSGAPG

Sequence | binding [1] | binding [2]
GTCGTCTTCGGCGTCTGGATGGCCGCCGGGCTCGTGTTCTACTTCAGTTACGGCCACCGGCGCTCGCGTCTGGCTGCGGCCCCGGCCCCCGCCGACCCCACGTCCCCGCCGGCTCCCCCGTCCACGTCCCCGTCGACTCCAGAGAAGTGATCCACCCGCAGTGCTGAACCATCTCGACGA (double strand) [P75421] | binds | binds
AAGGCAGTACCTTGCGCTCGGCGCGTCGGCCGGAAATCGAGTGAAGCAAGATGCTTCCCCCTTCTCGGCTCCGAGCGCGACAAACAGTTCAGAACAGGCCACGGCGAGATCCTCCGCAAGGAACGAACCCAGTCGTTCACCCGCTTAGTTTGATTGAAATTTCAACTACCAGGTCAATCG (double strand) [PtxtR] |  | binds
